Data on 1 substance can be found in publication PMC11340043.

For the assay, the target named is human LIFR-his (human) (UniProt P42702).
human LIFR-his (human), sequence (P42702 45-833): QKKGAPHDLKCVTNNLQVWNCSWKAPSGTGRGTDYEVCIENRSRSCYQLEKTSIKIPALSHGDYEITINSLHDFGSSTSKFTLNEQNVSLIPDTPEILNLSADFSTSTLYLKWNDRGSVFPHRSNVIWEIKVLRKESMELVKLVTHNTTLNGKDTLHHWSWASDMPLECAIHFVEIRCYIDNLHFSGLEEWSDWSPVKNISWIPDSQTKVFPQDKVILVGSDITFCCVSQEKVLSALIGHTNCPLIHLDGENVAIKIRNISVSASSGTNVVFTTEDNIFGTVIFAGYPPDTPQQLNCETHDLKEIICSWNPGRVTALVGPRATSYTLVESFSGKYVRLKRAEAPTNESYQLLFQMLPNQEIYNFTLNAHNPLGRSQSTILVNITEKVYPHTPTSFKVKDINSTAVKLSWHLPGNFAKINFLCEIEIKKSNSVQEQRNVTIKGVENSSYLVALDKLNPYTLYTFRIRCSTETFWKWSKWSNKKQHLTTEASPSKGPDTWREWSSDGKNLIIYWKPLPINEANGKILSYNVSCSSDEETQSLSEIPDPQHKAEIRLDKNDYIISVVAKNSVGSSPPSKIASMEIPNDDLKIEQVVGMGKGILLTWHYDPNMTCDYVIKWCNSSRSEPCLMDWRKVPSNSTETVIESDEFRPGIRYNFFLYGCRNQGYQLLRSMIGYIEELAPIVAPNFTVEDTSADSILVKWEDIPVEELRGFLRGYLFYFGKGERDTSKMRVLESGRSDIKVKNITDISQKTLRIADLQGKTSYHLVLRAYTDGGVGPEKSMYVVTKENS

human LIF, sequence (P15018 23-202): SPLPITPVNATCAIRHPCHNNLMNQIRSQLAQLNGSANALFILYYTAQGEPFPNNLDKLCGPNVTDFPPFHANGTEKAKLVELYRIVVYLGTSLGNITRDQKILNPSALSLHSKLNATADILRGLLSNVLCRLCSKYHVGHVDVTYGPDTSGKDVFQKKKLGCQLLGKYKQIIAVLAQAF

For “human LIF (from UniProt P15018 23-202) (ligand)”, the LIF-induced p-STAT3 (Tyr705) in U266 and HCT116 cells, western blot; dose-dependent inhibition by antibody 1G11, inhibition rate at 2 µg/ml 1G11 was above 90%.
